Test results from publication PMC8760278.

Tests used:
[1] = target: properdin from human serum (human) (UniProt P27918)
[2] = target: properdin from human serum (human) (UniProt P27918); remark: listed apart in the source
[3] = target: monomeric properdin lacking TSR domains 2 and 3 (FPΔ2,3) (human) (UniProt P27918); assay: MST; RED-NHS labelled FPΔ2,3 constant at 50 nM, CirpA1 2 nM to 64 uM; PBS, 0.05% Tween-20, pH 7.4; Monolith NT.115
[4] = target: monomeric properdin lacking TSR domains 2 and 3 (FPΔ2,3) (human) (UniProt P27918); assay: SEC-MALS; FPΔ2,3 with added CirpA1; S200 10/300 column in PBS, 100 uL at 1 mg/mL

Chain of UniProt P27918 (P27918 28-469): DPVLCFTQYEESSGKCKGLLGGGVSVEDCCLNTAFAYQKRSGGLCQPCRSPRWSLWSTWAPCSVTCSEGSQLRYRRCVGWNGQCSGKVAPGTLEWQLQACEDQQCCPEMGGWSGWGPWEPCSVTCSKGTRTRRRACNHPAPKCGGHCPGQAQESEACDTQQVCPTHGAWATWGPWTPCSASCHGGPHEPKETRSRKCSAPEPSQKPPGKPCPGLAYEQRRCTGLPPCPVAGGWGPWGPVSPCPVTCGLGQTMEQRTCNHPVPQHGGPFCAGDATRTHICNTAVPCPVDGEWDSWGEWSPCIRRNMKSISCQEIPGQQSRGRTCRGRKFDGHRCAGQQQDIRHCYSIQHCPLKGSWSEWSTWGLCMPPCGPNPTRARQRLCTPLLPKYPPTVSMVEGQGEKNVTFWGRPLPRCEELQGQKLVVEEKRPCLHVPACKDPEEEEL

Question: For “CirpA1, recombinant, preparation not stated for the experiment (natural protein)”, which AP haemolysis assay, human serum, rabbit erythrocytes; CirpA1 purified from insect cells [1] is on record?
Answer: Its AP haemolysis assay, human serum, rabbit erythrocytes; CirpA1 purified from insect cells is 1.41e-08.

Question: And the inhibition of the alternative pathway (MAC formation), WIESLAB assay, human serum [2]?
Answer: Its inhibition of the alternative pathway (MAC formation), WIESLAB assay, human serum is 13 nM.

Question: What about the Kd [3] of the same substance?
Answer: The Kd was 97 nM.

Question: For “CirpA1 (Complement inhibitor from R. pulchellus of the alternative pathway 1), refolded (natural protein)”, which stoichiometry N [4] is on record?
Answer: Its stoichiometry N is 1.

Question: How did the AP haemolysis assay, human serum, rabbit erythrocytes [1] turn out when CirpA6 (natural protein) was run?
Answer: The AP haemolysis assay, human serum, rabbit erythrocytes was 1.4e-08.
